# Reference: IntAct's records for PubMed 9341158
# B1: AP-2 complex subunit mu (Rattus norvegicus (Rat)), P84092 (parent)
# chain: MIGGLFIYNHKGEVLISRVYRDDIGRNAVDAFRVNVIHARQQVRSPVTNIARTSFFHVKRSNIWLAAVTKQNVNAAMVFEFLYKMCDVMAAYFGKISEENIKNNFVLIYELLDEILDFGYPQNSETGALKTFITQQGIKSQHQTKEEQSQITSQVTGQIGWRREGIKYRRNELFLDVLESVNLLMSPQGQVLSAHVSGRVVMKSYLSGMPECKFGMNDKIVIEKQGKGTADETSKSGKQSIAIDDCTFHQCVRLSKFDSERSISFIPPDGEFELMRYRTTKDIILPFRVIPLVREVGRTKLEVKVVIKSNFKPSLLAQKIEVRIPTPLNTSGVQVICMKGKAKYKASENAIVWKIKRMAGMKESQISAEIELLPTNDKKKWARPPISMNFEVPFAPSGLKVRYLKVFEPKLNYSDHDVIKWVRYIGRSGIYETRC
# Variants of: B1
# Conditions: with ap2b1_human AP2B1, P63010
# ap2b1_human AP2B1, P63010, sequence (P63010 whole entry): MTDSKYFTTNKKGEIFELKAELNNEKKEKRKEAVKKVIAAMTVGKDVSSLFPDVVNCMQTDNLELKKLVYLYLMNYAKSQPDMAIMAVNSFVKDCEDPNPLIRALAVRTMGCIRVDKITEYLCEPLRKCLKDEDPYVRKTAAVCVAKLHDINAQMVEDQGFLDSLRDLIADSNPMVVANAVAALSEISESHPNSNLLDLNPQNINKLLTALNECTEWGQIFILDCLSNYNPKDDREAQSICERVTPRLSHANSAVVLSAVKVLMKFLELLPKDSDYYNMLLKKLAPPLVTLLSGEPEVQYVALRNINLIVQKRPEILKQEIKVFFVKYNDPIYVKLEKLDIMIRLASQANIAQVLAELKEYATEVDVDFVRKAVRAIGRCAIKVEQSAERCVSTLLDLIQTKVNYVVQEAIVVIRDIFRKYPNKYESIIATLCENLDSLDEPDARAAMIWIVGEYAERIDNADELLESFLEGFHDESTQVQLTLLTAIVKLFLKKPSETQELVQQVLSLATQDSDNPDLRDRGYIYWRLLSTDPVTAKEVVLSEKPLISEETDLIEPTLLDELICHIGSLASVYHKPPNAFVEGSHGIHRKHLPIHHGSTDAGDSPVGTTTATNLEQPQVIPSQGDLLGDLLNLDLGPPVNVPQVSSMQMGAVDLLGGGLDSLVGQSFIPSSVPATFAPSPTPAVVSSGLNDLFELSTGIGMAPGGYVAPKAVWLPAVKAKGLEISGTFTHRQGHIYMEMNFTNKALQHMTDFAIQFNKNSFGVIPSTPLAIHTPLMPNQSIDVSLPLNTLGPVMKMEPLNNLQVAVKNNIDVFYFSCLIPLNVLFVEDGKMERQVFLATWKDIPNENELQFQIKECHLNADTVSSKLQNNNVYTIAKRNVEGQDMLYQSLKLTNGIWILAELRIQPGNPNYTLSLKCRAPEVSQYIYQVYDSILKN
row,effect of a mutation on the interaction,Variant
1,decreasing interaction,MIGGLFIYNHKGEVLISRVYRDDIGRNAVDAFRVNVIHARQQVRSPVTNIARTSFFHVKRSNIWLAAVTKQNVNAAMVFEFAYKMCDVMAAYFGKISEENIKNNFVLIYELLDEILDFGYPQNSETGALKTFITQQGIKSQHQTKEEQSQITSQVTGQIGWRREGIKYRRNELFLDVLESVNLLMSPQGQVLSAHVSGRVVMKSYLSGMPECKFGMNDKIVIEKQGKGTADETSKSGKQSIAIDDCTFHQCVRLSKFDSERSISFIPPDGEFELMRYRTTKDIILPFRVIPLVREVGRTKLEVKVVIKSNFKPSLLAQKIEVRIPTPLNTSGVQVICMKGKAKYKASENAIVWKIKRMAGMKESQISAEIELLPTNDKKKWARPPISMNFEVPFAPSGLKVRYLKVFEPKLNYSDHDVIKWVRYIGRSGIYETRC [L82A]
2,decreasing interaction,MIGGLFIYNHKGEVLISRVYRDDIGRNAVDAFRVNVIHARQQVRSPVTNIARTSFFHVKRSNIWLAAVTKQNVNAAMVFEFLAKMCDVMAAYFGKISEENIKNNFVLIYELLDEILDFGYPQNSETGALKTFITQQGIKSQHQTKEEQSQITSQVTGQIGWRREGIKYRRNELFLDVLESVNLLMSPQGQVLSAHVSGRVVMKSYLSGMPECKFGMNDKIVIEKQGKGTADETSKSGKQSIAIDDCTFHQCVRLSKFDSERSISFIPPDGEFELMRYRTTKDIILPFRVIPLVREVGRTKLEVKVVIKSNFKPSLLAQKIEVRIPTPLNTSGVQVICMKGKAKYKASENAIVWKIKRMAGMKESQISAEIELLPTNDKKKWARPPISMNFEVPFAPSGLKVRYLKVFEPKLNYSDHDVIKWVRYIGRSGIYETRC [Y83A]
3,decreasing interaction,MIGGLFIYNHKGEVLISRVYRDDIGRNAVDAFRVNVIHARQQVRSPVTNIARTSFFHVKRSNIWLAAVTKQNVNAAMVFEFLYKMCDVMAAYFGKASEENIKNNFVLIYELLDEILDFGYPQNSETGALKTFITQQGIKSQHQTKEEQSQITSQVTGQIGWRREGIKYRRNELFLDVLESVNLLMSPQGQVLSAHVSGRVVMKSYLSGMPECKFGMNDKIVIEKQGKGTADETSKSGKQSIAIDDCTFHQCVRLSKFDSERSISFIPPDGEFELMRYRTTKDIILPFRVIPLVREVGRTKLEVKVVIKSNFKPSLLAQKIEVRIPTPLNTSGVQVICMKGKAKYKASENAIVWKIKRMAGMKESQISAEIELLPTNDKKKWARPPISMNFEVPFAPSGLKVRYLKVFEPKLNYSDHDVIKWVRYIGRSGIYETRC [I96A]

# Variants of: B1
# Conditions: with tgon3_rat Ttgn1, P19814
# tgon3_rat Ttgn1, P19814, sequence (P19814 whole entry): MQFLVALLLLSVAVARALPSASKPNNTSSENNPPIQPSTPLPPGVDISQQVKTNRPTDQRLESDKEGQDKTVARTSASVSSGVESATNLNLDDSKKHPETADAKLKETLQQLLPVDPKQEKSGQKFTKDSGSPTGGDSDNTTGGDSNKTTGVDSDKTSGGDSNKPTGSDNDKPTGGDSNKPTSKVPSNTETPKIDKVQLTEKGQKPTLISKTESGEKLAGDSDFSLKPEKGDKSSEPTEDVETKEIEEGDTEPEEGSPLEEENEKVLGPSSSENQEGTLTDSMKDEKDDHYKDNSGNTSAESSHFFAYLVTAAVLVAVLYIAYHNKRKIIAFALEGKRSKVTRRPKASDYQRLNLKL
row,effect of a mutation on the interaction,Variant
1,decreasing interaction,MIGGLFIYNHKGEVLISRVYRDDIGRNAVDAFRVNVIHARQQVRSPVTNIARTSFFHVKRSNIWLAAVTKQNVNAAMVFEFLYKMCDVMAAYFGKISEENIKNNFVLIYELLDEILDFGYPQNSETGALKTFITQQGIKSQHQTKEEQSQITSQVTGQIGWRREGIKYRRNELFLDVLESVNLLMSPQGQVLSAHVSGRVVMKSYLSGAPECKFGMNDKIVIEKQGKGTADETSKSGKQSIAIDDCTFHQCVRLSKFDSERSISFIPPDGEFELMRYRTTKDIILPFRVIPLVREVGRTKLEVKVVIKSNFKPSLLAQKIEVRIPTPLNTSGVQVICMKGKAKYKASENAIVWKIKRMAGMKESQISAEIELLPTNDKKKWARPPISMNFEVPFAPSGLKVRYLKVFEPKLNYSDHDVIKWVRYIGRSGIYETRC [M209A]
2,decreasing interaction,MIGGLFIYNHKGEVLISRVYRDDIGRNAVDAFRVNVIHARQQVRSPVTNIARTSFFHVKRSNIWLAAVTKQNVNAAMVFEFLYKMCDVMAAYFGKISEENIKNNFVLIYELLDEILDFGYPQNSETGALKTFITQQGIKSQHQTKEEQSQITSQVTGQIGWRREGIKYRRNELFLDVLESVNLLMSPQGQVLSAHVSGRVVMKSYLSGMPECKFGMNDKIVIEKQGKGTADETSKSGKQSIAIDDCTFHQCVRLSKFDSERSISAIPPDGEFELMRYRTTKDIILPFRVIPLVREVGRTKLEVKVVIKSNFKPSLLAQKIEVRIPTPLNTSGVQVICMKGKAKYKASENAIVWKIKRMAGMKESQISAEIELLPTNDKKKWARPPISMNFEVPFAPSGLKVRYLKVFEPKLNYSDHDVIKWVRYIGRSGIYETRC [F265A]
3,decreasing interaction,MIGGLFIYNHKGEVLISRVYRDDIGRNAVDAFRVNVIHARQQVRSPVTNIARTSFFHVKRSNIWLAAVTKQNVNAAMVFEFLYKMCDVMAAYFGKISEENIKNNFVLIYELLDEILDFGYPQNSETGALKTFITQQGIKSQHQTKEEQSQITSQVTGQIGWRREGIKYRRNELFLDVLESVNLLMSPQGQVLSAHVSGRVVMKSYLSGMPECKFGMNDKIVIEKQGKGTADETSKSGKQSIAIDDCTFHQCVRLSKFDSERSISFIPPDAEFELMRYRTTKDIILPFRVIPLVREVGRTKLEVKVVIKSNFKPSLLAQKIEVRIPTPLNTSGVQVICMKGKAKYKASENAIVWKIKRMAGMKESQISAEIELLPTNDKKKWARPPISMNFEVPFAPSGLKVRYLKVFEPKLNYSDHDVIKWVRYIGRSGIYETRC [G270A]
4,decreasing interaction,MIGGLFIYNHKGEVLISRVYRDDIGRNAVDAFRVNVIHARQQVRSPVTNIARTSFFHVKRSNIWLAAVTKQNVNAAMVFEFLYKMCDVMAAYFGKISEENIKNNFVLIYELLDEILDFGYPQNSETGALKTFITQQGIKSQHQTKEEQSQITSQVTGQIGWRREGIKYRRNELFLDVLESVNLLMSPQGQVLSAHVSGRVVMKSYLSGMPECKFGMNDKIVIEKQGKGTADETSKSGKQSIAIDDCTFHQCVRLSKFDSERSISFIPPAGEFELMRYRTTKDIILPFRVIPLVREVGRTKLEVKVVIKSNFKPSLLAQKIEVRIPTPLNTSGVQVICMKGKAKYKASENAIVWKIKRMAGMKESQISAEIELLPTNDKKKWARPPISMNFEVPFAPSGLKVRYLKVFEPKLNYSDHDVIKWVRYIGRSGIYETRC [D269A]
